Reference: paper PMC12102759 (2025)

B1: SH3BP2 peptide 408-423 (SH3 domain-binding protein 2), 16-mer library wild type / TNKS ANK (TNKS 12 ANK repeats, residues 174-649) (parent complex)
chain 1: PQLPHLQRSPPDGQSF
chain 2: TGVPAVSGALRELLEACRNGDVSRVKRLVDAANVNAKDMAGRKSSPLHFAAGFGRKDVVEHLLQMGANVHARDDGGLIPLHNACSFGHAEVVSLLLCQGADPNARDNWNYTPLHEAAIKGKIDVCIVLLQHGADPNIRNTDGKSALDLADPSAKAVLTGEYKKDELLEAARSGNEEKLMALLTPLNVNCHASDGRKSTPLHLAAGYNRVRIVQLLLQHGADVHAKDKGGLVPLHNACSYGHYEVTELLLKHGACVNAMDLWQFTPLHEAASKNRVEVCSLLLSHGADPTLVNCHGKSAVDMAPTPELRERLTYEFKGHSLLQAAREADLAKVKKTLALEIINFKQPQSHETALHCAVASLHPKRKQVTELLLRKGANVNEKNKDFMTPLHVAAERAHNDVMEVLHKHGAKMNALDTLGQTALHRAALAGHLQTCRLLLSYGSDPSIISLQGFTAAQMGNEAVQQILSESTPIRTSD
B2: CBL peptide 538-553 (E3 ubiquitin-protein ligase CBL), 16-mer library wild type / YES SH3 (YES1 SH3 domain, residues 90-152) (parent complex)
chain 1: TLRDLPPPPPPDRPYS
chain 2: not shown

Variants of: B1
Assay: proteomic peptide phage display deep mutational scan (ProP-PD DMS): M13 P8 16-mer library selected against immobilised GST-tagged bait for four days (rounds), NGS of the eluted pools per day and pseudo-replica; bait immobilised on MaxiSorp plates (10 µg), library pre-cleared on GST, 2 h binding at 4 °C, five washes; one round per day, days 1-4; value from days 2 and 3

Variant | screen value
chain 1 Q2M | 0.000169 average fractional NGS count over selection days 2 and 3 (reads of this peptide / all reads for the bait, averaged over …
chain 1 Q2N | 0.000225 average fractional NGS count over selection days 2 and 3 (reads of this peptide / all reads for the bait, averaged over …
chain 1 Q2D | 0.00112 average fractional NGS count over selection days 2 and 3 (reads of this peptide / all reads for the bait, averaged over …
chain 1 Q2G | 0.000233 average fractional NGS count over selection days 2 and 3 (reads of this peptide / all reads for the bait, averaged over …
chain 1 Q2L | 0.00153 average fractional NGS count over selection days 2 and 3 (reads of this peptide / all reads for the bait, averaged over …
chain 1 Q2H | 0.000483 average fractional NGS count over selection days 2 and 3 (reads of this peptide / all reads for the bait, averaged over …
chain 1 Q2K | 0.000141 average fractional NGS count over selection days 2 and 3 (reads of this peptide / all reads for the bait, averaged over …
chain 1 Q2P | 0.00147 average fractional NGS count over selection days 2 and 3 (reads of this peptide / all reads for the bait, averaged over …
chain 1 Q2F | 0.000172 average fractional NGS count over selection days 2 and 3 (reads of this peptide / all reads for the bait, averaged over …
chain 1 Q2A | 0.000765 average fractional NGS count over selection days 2 and 3 (reads of this peptide / all reads for the bait, averaged over …
chain 1 Q2S | 0.00172 average fractional NGS count over selection days 2 and 3 (reads of this peptide / all reads for the bait, averaged over …
chain 1 Q2E | 0.000696 average fractional NGS count over selection days 2 and 3 (reads of this peptide / all reads for the bait, averaged over …
chain 1 S9V | 0.0149 average fractional NGS count over selection days 2 and 3 (reads of this peptide / all reads for the bait, averaged over …
chain 1 S9A | 0.000813 average fractional NGS count over selection days 2 and 3 (reads of this peptide / all reads for the bait, averaged over …
chain 1 S9T | 0.00132 average fractional NGS count over selection days 2 and 3 (reads of this peptide / all reads for the bait, averaged over …
chain 1 S9P | 0.000122 average fractional NGS count over selection days 2 and 3 (reads of this peptide / all reads for the bait, averaged over …
chain 1 S9F | 0.00032 average fractional NGS count over selection days 2 and 3 (reads of this peptide / all reads for the bait, averaged over …
chain 1 S9I | 0.00144 average fractional NGS count over selection days 2 and 3 (reads of this peptide / all reads for the bait, averaged over …
chain 1 S9W | 0.000206 average fractional NGS count over selection days 2 and 3 (reads of this peptide / all reads for the bait, averaged over …
chain 1 S9K | 0.000447 average fractional NGS count over selection days 2 and 3 (reads of this peptide / all reads for the bait, averaged over …
chain 1 S9E | 0.00024 average fractional NGS count over selection days 2 and 3 (reads of this peptide / all reads for the bait, averaged over …
chain 1 S9M | 0.00474 average fractional NGS count over selection days 2 and 3 (reads of this peptide / all reads for the bait, averaged over …
chain 1 Q14E | 0.000266 average fractional NGS count over selection days 2 and 3 (reads of this peptide / all reads for the bait, averaged over …
chain 1 Q14R | 0.000901 average fractional NGS count over selection days 2 and 3 (reads of this peptide / all reads for the bait, averaged over …
chain 1 Q14V | 0.00071 average fractional NGS count over selection days 2 and 3 (reads of this peptide / all reads for the bait, averaged over …
chain 1 Q14Y | 0.000878 average fractional NGS count over selection days 2 and 3 (reads of this peptide / all reads for the bait, averaged over …
chain 1 Q14G | 0.000379 average fractional NGS count over selection days 2 and 3 (reads of this peptide / all reads for the bait, averaged over …
chain 1 Q14F | 0.000219 average fractional NGS count over selection days 2 and 3 (reads of this peptide / all reads for the bait, averaged over …

Variant | screen value
chain 1 Q14T | 0.00291 average fractional NGS count over selection days 2 and 3 (reads of this peptide / all reads for the bait, averaged over …
chain 1 Q14M | 0.00362 average fractional NGS count over selection days 2 and 3 (reads of this peptide / all reads for the bait, averaged over …
chain 1 Q14I | 0.000236 average fractional NGS count over selection days 2 and 3 (reads of this peptide / all reads for the bait, averaged over …
chain 1 Q14S | 0.0015 average fractional NGS count over selection days 2 and 3 (reads of this peptide / all reads for the bait, averaged over …
chain 1 L6Q | 0.000145 average fractional NGS count over selection days 2 and 3 (reads of this peptide / all reads for the bait, averaged over …
chain 1 L6P | 0.000739 average fractional NGS count over selection days 2 and 3 (reads of this peptide / all reads for the bait, averaged over …
chain 1 L6N | 0.000459 average fractional NGS count over selection days 2 and 3 (reads of this peptide / all reads for the bait, averaged over …
chain 1 L6W | 0.000131 average fractional NGS count over selection days 2 and 3 (reads of this peptide / all reads for the bait, averaged over …
chain 1 L6T | 0.000389 average fractional NGS count over selection days 2 and 3 (reads of this peptide / all reads for the bait, averaged over …
chain 1 L6E | 0.00197 average fractional NGS count over selection days 2 and 3 (reads of this peptide / all reads for the bait, averaged over …
chain 1 L6V | 0.000569 average fractional NGS count over selection days 2 and 3 (reads of this peptide / all reads for the bait, averaged over …
chain 1 L6A | 0.00118 average fractional NGS count over selection days 2 and 3 (reads of this peptide / all reads for the bait, averaged over …
chain 1 S15E | 0.000326 average fractional NGS count over selection days 2 and 3 (reads of this peptide / all reads for the bait, averaged over …
chain 1 S15P | 0.000545 average fractional NGS count over selection days 2 and 3 (reads of this peptide / all reads for the bait, averaged over …
chain 1 S15V | 0.000578 average fractional NGS count over selection days 2 and 3 (reads of this peptide / all reads for the bait, averaged over …
chain 1 S15A | 0.00154 average fractional NGS count over selection days 2 and 3 (reads of this peptide / all reads for the bait, averaged over …
chain 1 S15R | 0.000309 average fractional NGS count over selection days 2 and 3 (reads of this peptide / all reads for the bait, averaged over …
chain 1 S15D | 0.000182 average fractional NGS count over selection days 2 and 3 (reads of this peptide / all reads for the bait, averaged over …
chain 1 S15M | 0.000289 average fractional NGS count over selection days 2 and 3 (reads of this peptide / all reads for the bait, averaged over …
chain 1 S15Y | 0.000762 average fractional NGS count over selection days 2 and 3 (reads of this peptide / all reads for the bait, averaged over …
chain 1 S15K | 0.000127 average fractional NGS count over selection days 2 and 3 (reads of this peptide / all reads for the bait, averaged over …
chain 1 S15H | 0.000369 average fractional NGS count over selection days 2 and 3 (reads of this peptide / all reads for the bait, averaged over …
chain 1 S15T | 0.000479 average fractional NGS count over selection days 2 and 3 (reads of this peptide / all reads for the bait, averaged over …
chain 1 S15I | 0.000286 average fractional NGS count over selection days 2 and 3 (reads of this peptide / all reads for the bait, averaged over …
chain 1 S15L | 0.00151 average fractional NGS count over selection days 2 and 3 (reads of this peptide / all reads for the bait, averaged over …
chain 1 S15W | 0.000372 average fractional NGS count over selection days 2 and 3 (reads of this peptide / all reads for the bait, averaged over …
chain 1 S15N | 0.000592 average fractional NGS count over selection days 2 and 3 (reads of this peptide / all reads for the bait, averaged over …

Variants of: B2
Assay: as above

Variant | screen value
chain 1 D4H | 0.000257 average fractional NGS count over selection days 2 and 3 (reads of this peptide / all reads for the bait, averaged over …
chain 1 D4S | 7.92e-05 average fractional NGS count over selection days 2 and 3 (reads of this peptide / all reads for the bait, averaged over …
chain 1 D4T | 0.00181 average fractional NGS count over selection days 2 and 3 (reads of this peptide / all reads for the bait, averaged over …
chain 1 L5I | 5.25e-05 average fractional NGS count over selection days 2 and 3 (reads of this peptide / all reads for the bait, averaged over …
chain 1 R13T | 0.000227 average fractional NGS count over selection days 2 and 3 (reads of this peptide / all reads for the bait, averaged over …
chain 1 R13S | 0.000102 average fractional NGS count over selection days 2 and 3 (reads of this peptide / all reads for the bait, averaged over …
chain 1 P7M | 0.000243 average fractional NGS count over selection days 2 and 3 (reads of this peptide / all reads for the bait, averaged over …
chain 1 S16L | 0.000883 average fractional NGS count over selection days 2 and 3 (reads of this peptide / all reads for the bait, averaged over …
chain 1 S16A | 0.00886 average fractional NGS count over selection days 2 and 3 (reads of this peptide / all reads for the bait, averaged over …
chain 1 P14S | 0.00038 average fractional NGS count over selection days 2 and 3 (reads of this peptide / all reads for the bait, averaged over …
chain 1 Y15Q | 0.000766 average fractional NGS count over selection days 2 and 3 (reads of this peptide / all reads for the bait, averaged over …
chain 1 L2A | 0.00082 average fractional NGS count over selection days 2 and 3 (reads of this peptide / all reads for the bait, averaged over …
chain 1 P11Y | 0.00117 average fractional NGS count over selection days 2 and 3 (reads of this peptide / all reads for the bait, averaged over …
chain 1 P11R | 0.000288 average fractional NGS count over selection days 2 and 3 (reads of this peptide / all reads for the bait, averaged over …
chain 1 P11K | 0.00117 average fractional NGS count over selection days 2 and 3 (reads of this peptide / all reads for the bait, averaged over …
chain 1 P10N | 0.000197 average fractional NGS count over selection days 2 and 3 (reads of this peptide / all reads for the bait, averaged over …
chain 1 P10W | 0.00035 average fractional NGS count over selection days 2 and 3 (reads of this peptide / all reads for the bait, averaged over …
chain 1 P10I | 0.00183 average fractional NGS count over selection days 2 and 3 (reads of this peptide / all reads for the bait, averaged over …
chain 1 R3F | 0.000372 average fractional NGS count over selection days 2 and 3 (reads of this peptide / all reads for the bait, averaged over …
chain 1 R3I | 0.000159 average fractional NGS count over selection days 2 and 3 (reads of this peptide / all reads for the bait, averaged over …
